{"source": "the DeepSol protein solubility set", "assay": "soluble on expression in E. coli; label from the status in PepcDB or PDB records", "data": [{"sequence": "MGSDKIHHHHHHMEETNEMKDSKHLISNIQSQYTRLSKGQKLIAQYILNNYDKVAFMTACKLGETVGVSESTVVRFANALGYSGYPKLQAALQELIKNKLTTVQRVEMAHDYSDDFAILNKVLKSDIDNIRSTLEEIDERAFKEASNKLLRARKIYILGMRSSFVVAQYLGFYLDIILDNVHIIRMDMGDAFEQIVRINEEDVIVAISFPRYSKKSYQIVNYAKEKGAHVISLTDSLFAPVASLADNTLLVKSNMASFVDSLVPALSISNALAISVGMKEKEDIKQHFDDLEQIWKRYSVYE", "values": [{"measurement": "soluble on expression in E. coli", "value": "not soluble"}]}, {"sequence": "MRRICKDERRIQSVNSSEEIAVSGMSAGRSAMRMGPAELVQAAAMARRFYLEGKSKIQIAEEFGVSRFKVARVLETALERDLVRIEIRVPAELDAERSDALRARYGLRHAVVVESPADAEETPDPENLGEVAADLLGELVNEGDVLGLAWGRSTIHMAAALDRLPPCTVVQLTGVYDAGTAERGSVEAVRRAAQVSGGDAHPIYAPMLLPDAATAQALRHQTGIARAFEYFDKVTVACVSIGSWEPGISTVHDMLSDEERAHYASLGVAAEMSAHLFDAEGRRVGRDLGERCITVKADQLRRIPEVVAIAGGQRKAAAIDAVLRSGLVTSLVTDTSAADYLMTVGSAPKSTLNRTDPDGI", "values": [{"measurement": "soluble on expression in E. coli", "value": "not soluble"}]}, {"sequence": "MKSAYIFFNPKSGKDEQALAKEVKSYLIEHDFQDDYVRIITPSSVEEAVALAKKASEDHIDLVIPLGGDGTINKICGGVYAGGAYPTIGLVPAGTVNNFSKALNIPQERNLALENLLNGHVKSVDICKVNDDY", "values": [{"measurement": "soluble on expression in E. coli", "value": "not soluble"}]}, {"sequence": "MAHHHHHHMGDKVEYGTSTVKSLGDTCRLVRALQGSTDPRLVSINSLLEGVVKSAQSLVKGTDSQKRFNMEFAEFCGVALMGLPDLEDAVDDLRVQENCANAAVNDQDDFDGISPAIFMREIIGYVVSRNTNVGAQYLEHIGRSAMAKFAGQESSEVTPKRLKSGMNDERHVQSVARKKQRTRPVAGKMGRAPTDDKSGVAATGRVFGVDGDEPKQRYKQSMPKGPPMLSRWVKPWTLLNQRVQGIILEHASNENTRRPPVCNYPPGKRSNITPFDICTAPSGPEMLNLWHARESMTSSSVGHCDPVGVAFDETALDHDSKGSEPSFFPSGDKKVCAFVSSELMANLVRYGVSSLEAPFKGAK", "values": [{"measurement": "soluble on expression in E. coli", "value": "not soluble"}]}, {"sequence": "MSLKPGDEVKVLTFGQKGTLLEKTGGNEWNVQIGILKMKVKEKDLEFIKSAPEPKKEKMITAVKGKDYHVSLELDLRGERYENALSRVEKYLDDAVLAGYPRVSIIHGKGTGALRKGVQDLLKNHRSVKSSRFGEAGEGGSGVTVVELKEGHHHHHH", "values": [{"measurement": "soluble on expression in E. coli", "value": "not soluble"}]}, {"sequence": "MKKFTCVQDIGDLKSALAESFEIKKDRFKYVELGRNKTLLMIFFNSSLRTRLSTQKAALNLGMNVIVLDINQGAWKLETERGVIMDGDKPEHLLEAIPVMGCYCDIIGVRSFARFENREYDYNEVIINQFIQHSGRPVFSMEAATRHPLQSFADLITIEEYKKTARPKVVMTWAPHPRPLPQAVPNSFAEWMNATDYEFVITHPEGYELDPKFVGNARVEYDQMKAFEGADFIYAKNWAAYTGDNYGQILSTDRNWTVGDRQMAVTNNAYFMHCLPVRRNMIVTDDVIESPQSIVIPEAANREISATVVLKRLLENLPHHHHHH", "values": [{"measurement": "soluble on expression in E. coli", "value": "soluble"}]}, {"sequence": "MNRIAKLLKTKYPIVQGPMAGITLGEFASTVSEAGGLGVIASAGLSPEKLKEEIEKVKNRTDKPFAVNIPIYQPGSEKNLETALKADVGIIYTSAGSPEKYTERVKESGAKVIHKVSRLKEGLKAEKAGVDAVVAMGFEAGGIIGRSGVTSFCLIPELADNLSIPVVAAGGIADERGFAAALILGAEGVEIGTRLLATKECPVPESIKQAILKATCDSTMVIESPVVMRALKPELSGDSENPALGGQVSGLIKEILTVEEVIRKIAEGLNKAKF", "values": [{"measurement": "soluble on expression in E. coli", "value": "not soluble"}]}, {"sequence": "MAMQIKGVIFDFDGTLLDSVELRITAWKKAFQNFGVNVPEDLIRPMIGYPGIDLAKKFVKNPLDVEMLQEDYFLKNIESAKFFQDVIPTLAELRKRGIKTAVVTSTRRIVMQKFSLQVDHVVTIDDVSKGKPDPEPYLKALKMMGIPAEECIVVGDIENDLIPAKKLRCISVLVKHGRDISSNYADYEIENIADILNVIDHLAEKNNR", "values": [{"measurement": "soluble on expression in E. coli", "value": "not soluble"}]}, {"sequence": "MGSDKIHHHHHHSGEKKESASEKGVETVLPDTKNEVSVMTLKKQIFNHELVSNGKISARGMADLRFESGEVIAHIWVKNGDRVRKGQKLAELDKFKLDNQLSQSEDALKKSELELRDVLISQGYPADDISQVPEETMKLAKVKSGYDQSKSQYEMSKYNAEHATLTAPFDGVVANLFSKPYNLASTSDVFCTVIDMQGMEVDFTVLESELPLIKNGDKVVIKPYSDAATVHEGSISEINPLVDDKGMVKVKARVNGAGKLFSGMNVRVSVHRSLGEQLVIPKSAVVLRSGKQVVFTLKDGKMAQWNYIHTALENADSYSVADGLTEGDTVIVSGNINLAHEAPVTIIE", "values": [{"measurement": "soluble on expression in E. coli", "value": "not soluble"}]}]}
